Reference: patent US20210363269A1 (ALX ONCOLOGY, published 2021)

T1: cynomolgus SIRP-α (cynomolgus monkey, UniProt Q5TFQ8 30-148 (human entry), limits assumed)
T1 construct: also called cyno1
T1 chain: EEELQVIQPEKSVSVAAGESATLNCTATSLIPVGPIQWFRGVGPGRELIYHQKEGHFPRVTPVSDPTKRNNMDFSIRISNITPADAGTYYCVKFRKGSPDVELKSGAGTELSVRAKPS

T2: BALBc mouse SIRP-α (mouse (BALB/c strain))
T2 chain: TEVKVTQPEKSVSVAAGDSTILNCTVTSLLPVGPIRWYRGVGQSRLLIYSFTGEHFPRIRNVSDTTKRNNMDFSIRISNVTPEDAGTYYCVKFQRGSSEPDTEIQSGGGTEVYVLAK

T3: mouse 129 SIRP-α (mouse (129 strain), UniProt P97797 32-150)
T3 construct: also called m129
T3 chain: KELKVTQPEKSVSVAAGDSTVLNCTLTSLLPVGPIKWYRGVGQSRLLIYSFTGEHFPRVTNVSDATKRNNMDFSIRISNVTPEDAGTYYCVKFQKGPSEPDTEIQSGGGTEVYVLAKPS


Tests used:
human SIRPγ isoform 1 [1] = biological target: T4, human SIRPγ isoform 1 (human, UniProt Q9P1W8 29-147); assay: SPR
T4 construct: also called Gamma; Human SIRPg
T4 sequence (Q9P1W8 29-147 limits assumed): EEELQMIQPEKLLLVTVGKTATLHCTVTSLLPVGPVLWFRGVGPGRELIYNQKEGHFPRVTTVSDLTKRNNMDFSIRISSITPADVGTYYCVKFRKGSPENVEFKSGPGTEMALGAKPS
Procedure, shortened: (§1)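 On a ProteOn XPR36 biosensor, purified antibodies were either amine-coupled to a GLC chip or captured on an NLC chip using biotinylated Protein A. The running buffer was PBS pH 7.4 with 0.01% Tween-20, at 25° C. SIRP analytes, at nominal concentrations fixed by A280 absorbance, were injected in one-shot kinetic mode. The rate constants are apparent values from a global simple Langmuir fit of double-referenced data, and KD equals kd/ka.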

human SIRP-α v2 [2] = biological target: T5, human SIRP-α v2 (human); assay: SPR
T5 construct: also called Human v2; Human V2
T5 sequence (chain, as listed by the source limits assumed): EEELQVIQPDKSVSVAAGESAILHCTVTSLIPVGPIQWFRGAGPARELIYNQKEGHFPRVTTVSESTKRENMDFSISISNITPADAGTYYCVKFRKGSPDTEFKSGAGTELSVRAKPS
Procedure, shortened: as §1

cynomolgus SIRP-α [3] = biological target: T1, cynomolgus SIRP-α; assay: SPR
Procedure, shortened: as §1

human SIRP-α v1 [4] = biological target: T6, human SIRP-α v1 (human, UniProt P78324 31-149); assay: SPR
T6 construct: also called Human v1; Human V1
T6 sequence (P78324 31-149 limits assumed): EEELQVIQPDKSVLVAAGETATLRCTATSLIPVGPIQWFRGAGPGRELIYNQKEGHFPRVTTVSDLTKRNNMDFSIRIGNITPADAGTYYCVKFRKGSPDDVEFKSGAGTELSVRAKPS
Procedure, shortened: as §1

BALBc mouse SIRP-α = biological target: T2, BALBc mouse SIRP-α; assay: SPR
Procedure, shortened: as §1

human SIRP-α v2 [5] = biological target: T5, human SIRP-α v2; assay: SPR; remark: listed apart in the source
Procedure, shortened: as §1

human SIRP-α v1 [6] = biological target: T6, human SIRP-α v1; assay: SPR; remark: listed apart in the source
Procedure, shortened: as §1

human SIRPγ isoform 1 [7] = biological target: T4, human SIRPγ isoform 1; assay: SPR Koff +/-
Procedure, shortened: as §1

human SIRPβ isoform 1 = biological target: T7, human SIRPβ isoform 1 (human, UniProt O00241 30-148); assay: SPR Koff +/-
T7 construct: also called Beta; Human SIRPb
T7 sequence (O00241 30-148 limits assumed): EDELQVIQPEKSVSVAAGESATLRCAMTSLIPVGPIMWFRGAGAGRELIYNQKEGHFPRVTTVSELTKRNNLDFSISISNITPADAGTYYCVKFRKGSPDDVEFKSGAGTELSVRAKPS
Procedure, shortened: as §1

cynomolgus SIRP-α [8] = biological target: T1, cynomolgus SIRP-α; assay: SPR Koff +/-
Procedure, shortened: as §1

mouse 129 SIRP-α = biological target: T3, mouse 129 SIRP-α; assay: SPR Koff +/-
Procedure, shortened: as §1

Row | Binder | koff (human SIRPγ isoform 1 [1]) [s⁻¹] | koff (human SIRP-α v2 [2]) [s⁻¹] | koff (cynomolgus SIRP-α [3]) [s⁻¹] | koff (human SIRP-α v1 [4]) [s⁻¹] | koff (BALBc mouse SIRP-α) [s⁻¹] | Kd (human SIRP-α v2 [5]) [nM] | Kd (human SIRP-α v1 [6]) [nM] | binding result (human SIRPγ isoform 1 [7]) | binding result (human SIRPβ isoform 1) | binding result (cynomolgus SIRP-α [8]) | binding result (mouse 129 SIRP-α)
1 | antibody 25 (antibody, V domains shown, also called AB25; S25) VH: DVQLVESGGGVVRPGESLRLSCEASGFTFSSNAMSWVRQAPGKGLEWVAGISSGSDTYYGDSVKGRLTISRDNSKNILYLQMNSLTAEDTAVYYCARETWNHLFDYWGLGTLVTVSS VL: ALTQPASVSANPGETVEITCSGGSYSSYYYAWYQQKSPGSAPVTLIYSDDKRPSNIPSRFSGSASGSTATLTITGVRAEDEAVYFCGGYDQSSYTNPFGAGTTLTVL | 0.000203 | 0.000353 | 0.000394 | 0.000165 | 0.00178 | < 0.001 | < 0.001 | – | – | – | –
2 | antibody 122 (antibody, V domains shown, also called S122) VH: VQLVESGGGVVRPGESLRLSCAASGFRFSNFAMTWVRQAPGEGLEWVSTIGSGDTYYADSVKGRFTISRDNSKNTLYLQMNSLRAEDTAVYYCAKDSTVSWSGDFFDYWGLGTLVTVSS VL: EIVLTQSPATLSVSPGERATFSCRASQNVKNDLAWYQQRPGQAPRLLIYAARIRETGIPERFSGSGSGTEFTLTITSLQSEDFAVYYCQQYYDWPPFTFGGGTKVEIK | – | – | – | – | – | 0.0778 | 0.214 | binds | binds | binds | no binding
3 | antibody 115 (antibody, V domains shown, also called S115) VH: DVQLVESGGGVVRPGESLRLSCAASGFSFSSYAMNWVRQAPGEGLEWVSRINSGGGGTDYAESVKGRFTISRDNSENTLYLQMNSLRAEDTAVYYCAKQYDWNSFFDYWGLGALVTVSS VL: ETVLTQSPATLSVSPGERATLSCRASQTVGSKLAWHQQKPGQAPRLLIYDATNRATGISDRFSGSGSGTDFTLTISSLQTEDSAVYYCQQYYYWPPYRFGGGTKVEIK | – | – | – | – | – | 0.015 | 0.0177 | binds | binds | binds | no binding
4 | antibody 117 (antibody, V domains shown, also called S117) VH: VQLVESGGGVVRPGESLRLSCAASGFSFSSYAMNWVRQAPGEGLEWVSRINSGGGGTDYAESVKGRFTISRDNSENTLYLQMNSLRAEDTAVYYCAKQYDWNGFFDYWGLGALVTVSS VL: ETVLTQSPATLSVSPGERATLSCRASQTVGSKLAWHQQKPGQAPRLLIYDATNRATGIPDRFSGSGSGTDFTLTISSLQTEDSAVYYCQQYYYWPPYRFGGGTKVEIK | – | – | – | – | – | – | 0.0312 | binds | binds | binds | no binding
5 | antibody 118 (antibody, V domains shown, also called S118) VH: VQLVESGGGVVRPGESLRLSCAASGFSFSSYAMNWVRQAPGEGLEWVSRINSGGGGTDYAESVKGRFTISRDNSENTLYLQMNSLRAEDTAVYYCAKQYDWNGFFDYWGLGALVTVSS VL: ETVLTQSPATLSVSPGERATLSCRASQTVGSKLAWHQQKPGQAPRLLIYDASRRATGIPDRFSGSGSGTDFTLTISSLQTEDSAVYYCQQYYYWPPYRFGGGTKVEIK | – | – | – | – | – | – | 0.0403 | binds | binds | binds | no binding
6 | antibody 116 (antibody, V domains shown, also called S116) VH: VQLVESGGGVVRPGESLRLSCAASGFSFSSYAMNWVRQAPGEGLEWVSRINSGGGGTDYAESVKGRFTISRDNSENTLYLQMNSLRAEDTAVYYCAKQYDWNSFFDYWGLGALVTVSS VL: ETVLTQSPATLSVSPGERATLSCRASQTVGSKLAWHQQKPGQAPRLLIYDATNRATGISDRFSGSRSGTDFTLTISSLQTEDSAVYYCQQYYYWPPYRFGGGTKVEIK | – | – | – | – | – | 0.299 | 0.11 | binds | binds | binds | no binding
7 | antibody 149 (antibody, V domains shown, also called S149) VH: DVQLVESGGGVVRPGESLRLSCAASGFTFSNFAMNWVRQAPGEGLEWVSLISVTATTYYADSVKGRFTISRDNSKNTLYLQMNSLRAEDTAVYYCAKVTWNNLFDYWGLGTLVTVSS VL: EIVLTQSPGTLSLSPGERATLSCRASQPIDSYLAWYQQKPGQAPRLLIYNTVTRATGIPDRFSGSGSGTDFTLTINRLEPEDFAVYYCQHQYDWPPYIFGGGTKVEIK | – | – | – | – | – | 0.238 | 0.873 | no binding | – | – | no binding
8 | antibody 161 (antibody, V domains shown, also called S161) VH: DVQLVESGGGVVRPGESLRLSCAASGFTFSNFAMTWVRQAPGKGPEWVSLVSVTATTYYADSVKGRFTISRDNSKSTLYLQMNSLRAEDTAVYYCAKITWNNLFDYWGLGTLVTVSS VL: EIVLTQSPGTLSLSPGERATLSCRASQTVGSKLAWYQQKPGQAPRLLIYDSSSRASGIPDRFSGSGSGTDFTLTISSLQSEDSAVYYCQQHNDWPPYTFGGGTKVEIK | – | – | – | – | – | 0.127 | 1.03 | no binding | – | – | no binding
9 | antibody 137 (antibody, V domains shown, also called S137) VH: not shown VL: ETVLTQSPGTLTLSPGERATLTCRASQSVYTYLAWYQEKPGQAPRLLIYGASSRATGIPDRFSGSGSGTVFTLTISSLQSEDFAVYYCQQYYDRPPLTFGGGTKVEIK | – | – | – | – | – | 3.14 | 0.774 | – | binds | binds | binds
10 | antibody 209 (antibody, V domains shown, also called S209) VH: DVQLVESGGAVVRPGESLRLSCKASGFTFTNFAMSWVRQAPGEGLEWVSGISGSDDTTYYADSVKGRFTISRDNSESTLYLQMNSLRAEDTAVYYCVKDSTVSWNTFFDYWGLGTLVTVSS VL: ALTQPASVSANLGGTVKITCSGGYGSDDGSSSYYGWYQQKSPGSAPVILIYWDDKRPSDIPSRFSGSTSGSTTTLTITGVQAEDEAVYFCGTYDTSSGAIFGAGTTLTVL | – | – | – | – | – | 5.01 | 0.171 | no binding | – | no binding | –
11 | antibody 173 (antibody, V domains shown, also called S173) VH: DVQLVESGGGVVRPGESLRLSCAASGFAFSDHDMSWVRQGPGEGLEWVAGISLRGGVTWYADSVKGRFTISRDNSKNTLYLRLFSLRTEDTAIYYCARESWNTFFDYWGLGTLVTVSS VL: EIVLTQSPGTLSLSPGETATLSCRASQNVRSNLAWYQQKPGQAPRLLIYDASSRATGIPDRFSGSGSGTDFTLTISSLQSEDFAVYYCQQYGNGPPLTFGGGTKVEIK | – | – | – | – | – | 9.28 | 0.937 | no binding | no binding | no binding | no binding
12 | antibody 174 (antibody, V domains shown, also called S174) VH: DVQLVESGGGVVRPGESLRLSCAASGFTFSDHDMSWVRQGPGEGLEWVAGISLRGGVTWYADSVKGRFTISRDNSKNTLYLRLFSLRTEDTAIYYCARESWNTFFDYWGLGTLVTVSS VL: EIVLTQSPGTLSLSPGETATLSCRASQNVRSNLAWYQQKPGQAPRLLIYDASSRATGIPDRFSGSGSGTDFTLTISSLQSEDFAVYYCQQYGNGPPLTFGGGTKVEIK | – | – | – | – | – | – | – | no binding | no binding | no binding | no binding
13 | antibody 21 (antibody, V domains shown, also called AB21; S21) VH: DVQLVESGGGVVRPGESLRLSCAASGFTFSSNAMSWVRQAPGKGLEWLAGISAGGSDTYYPASVKGRFTISRDNSKNTLYLQMNTLTAEDTAVYYCARETWNHLFDYWGLGTLVTVSS VL: ALTQPASVSANPGETVKIACSGGDYYSYYYGWYQQKAPGSALVTVIYSDDKRPSDIPSRFSGSASGSTATLTITGVRAEDEAVYYCGGYDYSTYANAFGAGTTLTVL | 0.000902 | 0.00192 | 0.00229 | 0.000707 | 0.00241 | < 0.001 | < 0.001 | – | – | – | –
14 | antibody 45 (antibody, V domains shown, also called S45; AB45) VH: AVTLDESGGGLQTPGGALSLVCKASGFTFSSYAMGWVRQAPGKGLEWVAGIDDDGSTANYGPAVKGRATISRDNGQSTVRLQLNNPRAEDSGTYFCAKASVTGWSAHISGRLDTWGHGTEVIVSS VL: ALTQPASVSANPGETVKITCSGGGIYYYGWYQQKSPGSAPVTLIYENDKRPSDIPSRFSGSTSGSTNTFTITGVQAEDEAVYYCGGYDSNTTSGIFGAGTTLTVL | – | – | – | – | – | – | – | – | – | no binding | –
